Two molecules from patent US20210309732A1 (ELIXIRON IMMUNOTHERAPEUTICS HONG KONG, published 2021) can be followed below.

Assay [1] concerns the target recombinant human GM-CSF (human) (UniProt P04141). Description: SPR Biacore 3000, antibody captured by goat anti-human IgG, rhGM-CSF injected. In general terms: Surface plasmon resonance follows binding to a sensor surface in real time, without labels.
For assay [2], the target named is recombinant human IL-3 (human) (UniProt P08700). Description: cell-based or functional assay.
The target of assay [3] is recombinant human GM-CSF (human) (UniProt P04141). As to the kind of experiment: cell-based or functional assay.
The next assay concerns the target rhesus GM-CSF (rhesus) (UniProt Q9GL44). As to the kind of experiment: ELISA, GM-CSF coated on the plate, anti-human kappa light chain-HRP, OD 450 nm. For orientation: ELISA stands for enzyme-linked immunosorbent assay.
Assay [4] deals with recombinant human GM-CSF (human) (UniProt P04141). Described as above.
Assay [5] deals with T1, recombinant human GM-CSF (human, UniProt P04141 18-144).
T1 construct: also called rhGM-CSF; CSF2
Description: Biacore.

Assay [6] concerns the target T1, recombinant human GM-CSF. As to the kind of experiment: ELISA, human GM-CSF coated on the plate, anti-human kappa light chain-HRP, OD 450 nm. The method, then:
(§1) Human and mouse GM-CSF have about 56% homology and are species specific. Rhesus and GM-CSF has 96.5% homologous to human GM-CSF (Hutchinson et al, J Med Virol 2001, 65:561-565, Genbank accession number AY007376). […] ELISA was performed as followed. Briefly, GM-CSF proteins were coated on the ELISA absorbing plates, then blocked by 1% BSA in PBS. […] After incubation, the plates were washed three times with TBST and incubated with anti-human kappa light chain conjugated HRP secondary antibodies. Plates were washed three times, TMB peroxidase substrate was added and reactions were stopped by adding 1 N sulfuric acid.

Assay [7] deals with T1, recombinant human GM-CSF. Description: Gator (pro), Coating Ag.
The target in assay [8] is T1, recombinant human GM-CSF. As to the kind of experiment: ELISA on coated rhGM-CSF, UBA relative to 1D2. The essentials:
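Antibody clones carrying SDR point mutants in VH or VL, each paired with the wild-type chain, were expressed in HEK293 cells. Culture media diluted 1:12000 were bound to plates coated with rhGM-CSF at 1 μg/mL for 1 h at room temperature. Detection used HRP anti-human antibody and Amplex Red fluorescence (Ex530/Em590), with UBA = fluorescence signal/dilution factor.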

Assay [9] addresses T1, recombinant human GM-CSF. As to the kind of experiment: SPR Biacore 3000, antibody captured by goat anti-human IgG, rhGM-CSF injected. On the procedure:
The kinetic binding analysis of anti-GM-CSF antibodies to recombinant human GM-CSF (rhGM-CSF) was determined by Surface plasmon resonance (SPR) using the Biacore 3000 instrument (GE Healthcare). Goat anti-human IgG (5 μg/mL) (SouthernBiotech) was stabilized in […] acetate buffer, pH 4.5, and immobilized on an EDC/NHS pre-activated carboxymethylated dextran 5 (CMS) sensor chip (GE Healthcare) through amine coupling kit (GE Healthcare). HBS-EP buffer (HBS; 10 […], 0.005% surfactant Tween-20, pH 7.4) (GE Healthcare) was used as running buffer. […] CMS sensor chip coated only with goat anti-human IgG was used as reference chip. rhGM-CSF (Biolegend) was injected over the mAb-coated CMS sensor chip and reference chip at different concentrations. The flow rate was 30 μl/min. […] Injection time and dissociation time were 180 and 600 seconds. Data were fitted to a 1:1 model using the Biacore 3000 evaluation software.

Assay [10] concerns the target T1, recombinant human GM-CSF. Description: cell-based or functional assay.
The target of assay [11] is T2, rhesus GM-CSF (rhesus, UniProt Q9GL44 18-144). Description: ELISA, rhesus GM-CSF coated on the plate, anti-human kappa light chain-HRP, OD 450 nm. On the procedure: as §1
In assay [12] the target is T1, recombinant human GM-CSF. As to the kind of experiment: cell-based or functional assay. This is another data set of the same source.
Assay [13] addresses T2, rhesus GM-CSF. As to the kind of experiment: ELISA, GM-CSF coated on the plate, anti-human kappa light chain-HRP, OD 450 nm. The method, then: as §1
Assay [14] has as its target T1, recombinant human GM-CSF. Described as above. The method, then:
as §1

In the next assay the target is T3, mouse GM-CSF (mouse, UniProt P01587 18-141).
T3 sequence (looked up): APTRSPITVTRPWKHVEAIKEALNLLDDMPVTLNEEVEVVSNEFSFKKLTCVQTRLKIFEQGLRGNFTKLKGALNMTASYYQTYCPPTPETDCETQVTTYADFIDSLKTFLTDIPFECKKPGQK
The assay is described as above. The method, then: as §1

Assay [15] has as its target T1, recombinant human GM-CSF. Description: Biacore. This is another data set of the same source.
The target of assay [16] is T1, recombinant human GM-CSF. Description: Gator, Coating Ag.
For assay [17], the target named is T1, recombinant human GM-CSF. Description: Gator, Coating Ab.
For assay [18], the target named is T1, recombinant human GM-CSF. As to the kind of experiment: Biacore. The source holds these as a separate data set.

T1 sequence (P04141 18-144 limits assumed): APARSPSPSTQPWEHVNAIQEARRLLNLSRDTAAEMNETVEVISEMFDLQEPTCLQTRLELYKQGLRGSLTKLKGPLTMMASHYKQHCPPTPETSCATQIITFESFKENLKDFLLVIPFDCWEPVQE
recombinant human GM-CSF (human), sequence (P04141 18-144 limits assumed): as above
T2 sequence (Q9GL44 entry or part of it limits assumed): as the sequence (P04141 18-144 limits assumed) above, with S9G, E38K, I43V, T53S, R67Q, E104Q counted along it
recombinant human IL-3 (human), sequence (P08700 20-152 limits assumed): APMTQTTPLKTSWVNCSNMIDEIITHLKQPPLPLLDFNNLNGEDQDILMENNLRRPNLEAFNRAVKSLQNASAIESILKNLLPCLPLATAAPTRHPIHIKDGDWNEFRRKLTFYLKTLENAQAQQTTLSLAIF
rhesus GM-CSF (rhesus), sequence (Q9GL44 entry or part of it limits assumed): as the sequence (P04141 18-144 limits assumed) above, with S9G, E38K, I43V, T53S, R67Q, E104Q counted along it

B1: AMG203 (namilumab) (antibody, INN chains, looked up, human IgG1, V domains shown)
VH: QVQLVQSGAEVKKPGASVKVSCKAFGYPFTDYLLHWVRQAPGQGLEWVGWLNPYSGDTNYAQKFQGRVTMTRDTSISTAYMELSRLRSDDTAVYYCTRTTLISVYFDYWGQGTMVTVSS
VL: DIQMTQSPSSVSASVGDRVTIACRASQNIRNILNWYQQRPGKAPQLLIYAASNLQSGVPSRFSGSGSGTDFTLTINSLQPEDFATYYCQQSYSMPRTFGGGTKLEIK
modifications: IgG1 kappa
By Kd is commonly meant the free concentration of one partner at which half of the binding sites on the other are occupied at equilibrium, for simple one-to-one binding. The koff is a measure of how fast the partners let go of each other. In general, kon refers to the rate constant with which the complex forms. As usually defined, the EC50 (read off the curve) is the concentration giving half of the maximal effect. As for B1, in assay [1], the Kd is 0.62 nM, the koff was determined as 4.77e-05 s⁻¹ and the association rate constant (kon) was found to be 296000 M⁻¹ s⁻¹. For the same molecule, the Mean Fluorescence Intensity of phospho-STAT5 (pY694) in human PBMCs stimulated with 10 ng/mL rhIL-3, 2 ug/mL antibody (no antibody: 102) in [2] stood at 104 MFI. Also, the Mean Fluorescence Intensity of phospho-STAT5 (pY694) in human PBMCs stimulated with 10 ng/mL rhGM-CSF, 2 ug/mL antibody (no antibody: 122.0) in [3] is 42.6 MFI. This molecule gave an EC50 (read off the curve) in the assay with rhesus GM-CSF (rhesus) of 0.05 nM. In assay [4], the concentration for a half-maximal effect (EC50 (read off the curve)) was determined as 0.05 nM.

B2: antibody 1D2 (antibody, V domains shown)
VH: QVQLVQSGAEVKKPGASVKVSCEASGYTFTDKYLHWVRQAPGQGLEWMAWINPKSGGTFYAQNFKGRVTVTRDTSINTAYLELTSLRLDDTSTYYCARGRDYYDQGAADLWGQGTMVTVSS
VL: DIQLTQSPSSLSASVGDRVTITCRASQGINSVLAWYQQKPGKAPKLLLYAASKLESGVPSRFSGSGSGTDYTLTISSLQPEDFGTYYCQQYYSPVRTFGQGTKVEIKR
notes: also called 1D2-WT; WT
In the case of B2, the Kd is 0.162 nM with recombinant human GM-CSF [5]; 0.00157 nM in the assay with recombinant human GM-CSF [7]; 0.0643 nM with recombinant human GM-CSF [9]; 0.099 nM with recombinant human GM-CSF [15]; 0.0176 nM with recombinant human GM-CSF [16]; 0.177 nM in the assay with recombinant human GM-CSF [17]. Further, the Kd with recombinant human GM-CSF [18] stood at 0.099 nM. Moreover, the “EC50 (read off the curve)” value in the assay with recombinant human GM-CSF [6] was around 0.4 nM; with rhesus GM-CSF [11], around 0.5 nM; with rhesus GM-CSF [13], around 0.06 nM; with recombinant human GM-CSF [14], around 0.08 nM. Moreover, the “binding affinity % of 1D2” value in the assay with recombinant human GM-CSF [8] stood at 100%. For the same molecule, the koff in the assay with recombinant human GM-CSF [9] was 7.48e-05 s⁻¹; in the assay with recombinant human GM-CSF [15], 0.000173 s⁻¹; with recombinant human GM-CSF [18] it was 0.000173 s⁻¹. Besides, the figures for the kon with recombinant human GM-CSF [9], in the assay with recombinant human GM-CSF [15] and with recombinant human GM-CSF [18] were around 1.16e+06 M⁻¹ s⁻¹, 1.75e+06 M⁻¹ s⁻¹ and 1.75e+06 M⁻¹ s⁻¹, respectively. Also, the “IC50, inhibition of GM-CSF induced TF-1 cell proliferation” value with recombinant human GM-CSF [10] turned out to be 0.0631 nM. Also, in the assay with recombinant human GM-CSF [10], the “IC50, inhibition of rhGM-CSF induced CCL17 secretion from PBMCs” value came out at 0.0714 nM. In the assay with recombinant human GM-CSF [10], the “IC50, inhibition of rhGM-CSF induced CCL17 secretion in human PBMCs” value came out at 0.159 nM. Besides, in the assay with recombinant human GM-CSF [10], the “IC50, inhibition of rhGM-CSF induced IL-8 secretion in U937 cells” value was found to be 0.0594 nM. Further, the “IC50 (M), inhibition of GM-CSF induced TF-1 cell proliferation (FIG. 5A)” value with recombinant human GM-CSF [12] turned out to be 1.71e-10 M. Moreover, the “IC50 (M), inhibition of GM-CSF induced TF-1 cell proliferation (FIG. 5B)” value in the assay with recombinant human GM-CSF [12] came out at 2.28e-10 M. In addition, the binding result in the assay with mouse GM-CSF is “no binding (tested: about 4e-8 M)”. For the same molecule, the Ka in the assay with recombinant human GM-CSF [18] is 1.01e+10 M⁻¹.
